According to patent US20230203146A1:
Numbering of substitutions follows the chain as printed. Read-outs that look alike come from different tables or passages of the source.

B1: VHH 25F01 (VHH, not shown: small tags and cut ends)
VHH: EVQLVESGGGLVQAGGSLRLSCAVSGLPFDDYVIGWFRQAPGKEREGVSCISSSDGSTYYADSVKGRFTISSDNAKNTVYLQMNSLKPEDTAAYYCAAGGPRINIATMTCSHDEYEYDYWGQGTQVTVSS
B2: VHH 13A02 (VHH, not shown: small tags and cut ends)
VHH: EVQLVESGGGLVQAGGSLRLSCAASGGTFSSYSMGWFRQAPGKEREFIAAINWNGDSTYYEDSVKGRFTVSRDNAKNTVYLQMNSLKPEDTAVYYCAATGWGRAYEQAYEYDVWGQGTQVTVSS
B3: VHH 11B07 (VHH, not shown: small tags and cut ends)
VHH: EVQLVESGGGLVQVGDSLRLSCAASGRTFSTYLMVGWFRQAPGKEREFAAGIWSSGDTAYADSVRGRFTISRDNAKNTVYLQMNSLKTEDTAVYYCAGSYDGNYYIPGFYKDWGQGTQVTVSS
B4: VHH 24B05 (VHH, not shown: small tags and cut ends)
VHH: EVQLVESGGGLVQPGGSLRLSCAASGFTLDYYAIGWFRQAPGKEWEGVSCISSSDGSTYYADSVKGRFTISRDNAKNTVYLQMNSLKPEDTAVYYCATDSIVCGSYYGMDYWGKGTQVTVSS
B5: VHH 12A08 (VHH, not shown: small tags and cut ends)
VHH: EVQLVESGRGLVQAGGSLRLSCAASGSIFSINAMLWYRQAPGKQRELVAAITSGGSTNYADSVKGRFTISRDNAKNTVYLQMNSLKPEDTAVYYCAADSDYSSDYYYWGQGTQVTVSS
B6: VHH 28D10 (VHH, not shown: small tags and cut ends)
VHH: EVQLVESGGGLVQAGGSLRLSCAASGFTLDDYAIGWFRQAPGKEREGVSCIRDSDGSTYYADSVKGRFTISSDNDKNTVYLQMNSLKPEDTAVYYCAAVPAGRLRFGEQWYPLYEYDAWGQGTQVTVSS
B7: VHH 00042 (VHH, not shown: small tags and cut ends)
VHH: B6 VHH with A14P, C50S, S54N, D75S, K87R, Q124L
B8: VHH 00025 (VHH, not shown: small tags and cut ends)
VHH: B6 VHH with C50T, Q124L
B9: VHH 00043 (VHH, not shown: small tags and cut ends)
VHH: B6 VHH with A14P, C50S, S54N, S72R, D75A, K87R, Q124L
B10: VHH 00054 (VHH, not shown: small tags and cut ends)
VHH: B6 VHH with A14P, C50S, S54N, S72R, D75S, K87R, Q124L
B11: VHH 00048 (VHH, not shown: small tags and cut ends)
VHH: B6 VHH with C50S, Q124L
B12: VHH 00055 (VHH, not shown: small tags and cut ends)
VHH: B6 VHH with C50S, S54N, D55G, Q124L
B13: VHH 00027 (VHH, not shown: small tags and cut ends)
VHH: B6 VHH with C50S, S54N, Q124L
B14: VHH 00052 (VHH, not shown: small tags and cut ends)
VHH: B6 VHH with A14P, C50S, S54N, K87R, Q124L
B15: VHH 00956 (VHH, not shown: small tags and cut ends)
VHH: B6 VHH with A14P, C50A, D53S, D55G, D75S, K87R, Q124L
B16: VHH 00041 (VHH, not shown: small tags and cut ends)
VHH: B6 VHH with A14P, C50S, S54N, D75A, K87R, Q124L
B17: VHH 00053 (VHH, not shown: small tags and cut ends)
VHH: B6 VHH with A14P, C50S, S54N, S72R, K87R, Q124L
B18: VHH 7G08 (VHH, not shown: small tags and cut ends)
VHH: EVQLVESGGGLVQPGGSLRLSCAASGFALDYYAIGWFRQVPGKEREGVSCISSSDGITYYVDSVKGRFTISRDNAKNTVYLQMNSLKPEDTAVYYCATDSGGYIDYDCMGLGYDYWGQGTQVTVSS
B19: VHH 37F02 (VHH, not shown: small tags and cut ends)
VHH: B18 VHH with V40A
B20: VHH 37A09 (VHH, not shown: small tags and cut ends)
VHH: B18 VHH with V5M, E89G
B21: VHH 14A08 (VHH, not shown: small tags and cut ends)
VHH: EVQLVESGGGLVQAGGSLRLSCASSGFTFDDYAIGWFRQAPGKEREGVSCISSSDGSTYYADSVKGRFTISSDNAKNTVYLQMNSLKPEDTAVYYCAARPPFHSCSEYENDYWGQGTQVTVSS
B22: VHH 00938 (VHH, not shown: small tags and cut ends)
VHH: EVQLVESGGGLVQPGGSLRLSCAVSGITLDDYAIGWFRQAPGKEREGVSAIRSSGGSTYYADSVKGRFTISSDNSKNTVYLQMNSLRPEDTAVYYCAAVPAGRLRYGEQWYPIYEYDAWGQGTLVTVSS
B23: VHH 25G04 (VHH, not shown: small tags and cut ends)
VHH: EVQLVESGGGLVQPGGSLRLSCAASGFTFGSYDMSWVRQAPGKGPEWVSAINSRGGSTYYADSVKGRFTISRDNAKNTLYLQMNSLKPEDTAVYYCATDPYSLSYYGYPLYDYWGQGTQVTVSS
B24: VHH 25D08 (VHH, not shown: small tags and cut ends)
VHH: EVQLVESGGGLVQAGGSLRLSCAASGFTFDDYAIGWFRQAPGKDLEGVSCISSSDGSTYYADSVKGRFTISSDNAKNTVYLQMNSLKPEDTAVYYCAAVNGLGPFSVPVPVYDFWGQGTQVTVSS
B25: VHH 32H10 (VHH, not shown: small tags and cut ends)
VHH: EVQLVESGGGLVQAGGSLRLSCAASGFDFEDYDMGWFRQAPGKEREGVSYISSSDGSTYYTDSVKGRFTISSDNAKNTVYLQMNSLIPEDTAVYYCAARPWTRRVYGSSWLARSLDEYEYDYWGQGTQVTVSS
B26: VHH 29B08 (VHH, not shown: small tags and cut ends)
VHH: EVQLVESGGGVVQAGDSVRLSCAASGPTFRSYTMAWFRQTPGKERDIVAAISSSLGRTYYADSVKGRFQILRDNAKETVWLQMNSLKPEDTAVYICAASRSLNLAYTTKPYDYWGQGTQVTVSS
B27: VHH 1D01 (VHH, not shown: small tags and cut ends)
VHH: EVQLVESGGGLVQAGGSLRLSCAASGFTFDDYALGWFRQAAGKEREGVSCIRCSDGSTYYADSVKGRFTISSDNAKNTVYLQMNSLKPEDTAVYYCAASIVPRSKLEPYEYDAWGQGTQVTVSS

Assays:
[1] = target: FLAG tagged human Ang2 (Alexis Biochemicals) (human) (UniProt O15123); test: AlphaScreen competition, periplasmic extract, FLAG-hAng2 / biotin-hTie2/Fc
[2] = target: FLAG tagged human Ang2 (Alexis Biochemicals) (human) (UniProt O15123); test: competition ELISA, FLAG-hAng2 (0.02 nM) on coated hTie2/Fc
[3] = target: FLAG tagged human Ang2 (Alexis Biochemicals) (human) (UniProt O15123); test: competition ELISA, periplasmic extract, FLAG-hAng2 on hTie2/Fc
[4] = target: FLAG-tagged recombinant human Ang1 (Alexis Biochemicals) (human) (UniProt Q15389); test: competition ELISA, periplasmic extract, FLAG-hAng1 on hTie2/Fc
[5] = target: FLAG tagged human Ang2 (Alexis Biochemicals) (human) (UniProt O15123); test: competition ELISA, FLAG-hAng2 (0.02 nM) on coated hTie2/Fc; remark: listed apart in the source
[6] = target: N-terminally FLAG-tagged mouse Ang2 (HEK293T conditioned medium) (mouse) (UniProt O35608); test: competition ELISA, periplasmic extract, FLAG-mAng2 on mTie2/Fc
[7] = target: FLAG-tagged human Ang2 (human) (UniProt O15123); test: competition ELISA: FLAG-hAng2 binding to coated hTie2-Fc
[8] = target: FLAG-tagged recombinant human Ang1 (human) (UniProt Q15389); test: ratio of IC50s in hAng1/hTie2 and hAng2/hTie2 competition ELISA
[9] = target: FLAG-tagged human Ang2 (human) (UniProt O15123); test: competition ELISA: FLAG-hAng2 binding to coated hTie2-Fc; remark: listed apart in the source

Sequence of N-terminally FLAG-tagged mouse Ang2 (HEK293T conditioned medium) (mouse) (O35608 19-496 limits assumed): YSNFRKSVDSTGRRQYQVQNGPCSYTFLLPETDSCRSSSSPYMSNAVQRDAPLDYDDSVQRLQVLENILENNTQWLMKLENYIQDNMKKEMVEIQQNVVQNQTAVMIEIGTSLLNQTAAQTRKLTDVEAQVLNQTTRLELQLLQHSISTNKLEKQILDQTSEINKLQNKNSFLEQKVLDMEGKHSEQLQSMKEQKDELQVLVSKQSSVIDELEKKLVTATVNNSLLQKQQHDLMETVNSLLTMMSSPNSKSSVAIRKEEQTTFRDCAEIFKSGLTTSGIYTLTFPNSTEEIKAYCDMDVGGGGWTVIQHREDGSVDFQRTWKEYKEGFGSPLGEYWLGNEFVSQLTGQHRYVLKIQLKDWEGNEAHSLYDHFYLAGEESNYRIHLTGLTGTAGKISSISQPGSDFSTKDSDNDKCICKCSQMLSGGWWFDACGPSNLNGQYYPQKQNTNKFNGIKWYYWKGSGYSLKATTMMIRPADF
Sequence of FLAG-tagged recombinant human Ang1 (Alexis Biochemicals) (human) (Q15389 20-498 limits assumed): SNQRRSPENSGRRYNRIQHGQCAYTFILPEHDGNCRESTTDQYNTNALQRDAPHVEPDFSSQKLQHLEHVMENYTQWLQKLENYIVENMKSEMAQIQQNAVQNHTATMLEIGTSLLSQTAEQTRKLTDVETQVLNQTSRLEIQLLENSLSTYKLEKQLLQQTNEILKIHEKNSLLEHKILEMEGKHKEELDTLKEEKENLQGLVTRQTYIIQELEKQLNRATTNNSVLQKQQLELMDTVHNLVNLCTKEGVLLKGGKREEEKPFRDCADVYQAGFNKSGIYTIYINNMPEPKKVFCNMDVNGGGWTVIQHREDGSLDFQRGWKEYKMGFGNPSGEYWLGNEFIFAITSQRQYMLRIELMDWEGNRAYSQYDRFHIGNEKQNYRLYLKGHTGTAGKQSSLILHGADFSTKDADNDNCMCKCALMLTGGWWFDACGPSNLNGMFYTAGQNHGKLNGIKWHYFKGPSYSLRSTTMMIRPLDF
Sequence of FLAG-tagged recombinant human Ang1 (human) (Q15389 20-498 limits assumed): as above
Sequence of FLAG tagged human Ang2 (Alexis Biochemicals) (human) (O15123 19-496): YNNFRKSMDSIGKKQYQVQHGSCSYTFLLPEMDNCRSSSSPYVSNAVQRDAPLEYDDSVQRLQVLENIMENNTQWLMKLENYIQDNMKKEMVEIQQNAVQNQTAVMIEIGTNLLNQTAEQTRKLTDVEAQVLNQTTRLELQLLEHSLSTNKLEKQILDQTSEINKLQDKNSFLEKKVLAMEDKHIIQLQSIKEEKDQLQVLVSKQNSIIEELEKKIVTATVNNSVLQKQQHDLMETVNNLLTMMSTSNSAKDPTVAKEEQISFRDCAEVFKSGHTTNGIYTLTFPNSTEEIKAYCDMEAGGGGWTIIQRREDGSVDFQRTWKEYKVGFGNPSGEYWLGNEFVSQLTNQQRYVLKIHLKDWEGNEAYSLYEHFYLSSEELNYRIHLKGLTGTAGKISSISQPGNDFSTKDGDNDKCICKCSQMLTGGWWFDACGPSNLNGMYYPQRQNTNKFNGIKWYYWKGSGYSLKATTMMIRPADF
Sequence of FLAG-tagged human Ang2 (human) (O15123 19-496): as above

| % inh [1] | % inh [3] | IC50 [5] | IC50 [7] | other results | Binder |
| --- | --- | --- | --- | --- | --- |
| 67% | 85% |  |  | IC50 [2]: 6.5 nM; % inh [4]: 14% | B1 |
| 91% | 96% | 23 nM |  | IC50 [2]: 4.1 nM | B2 |
|  |  | 14 nM |  | IC50 [2]: 5.4 nM | B3 |
| 97% | 102% | 1.1 nM |  | IC50 [2]: 1 nM | B4 |
| 98% | 0% |  |  | % inh [6]: 2% | B5 |
| 89% | 118% | 1.3 nM | 1.8 nM | hAng1/hAng2 ratio [8]: > 5680 | B6 |
|  |  |  | 0.7 nM | IC50 [9]: 0.646 nM | B7 |
|  |  |  | 2.1 nM |  | B8 |
|  |  |  | 9.5 nM |  | B9 |
|  |  |  | 9.5 nM |  | B10 |
|  |  |  | 0.6 nM |  | B11 |
|  |  |  | 1.8 nM |  | B12 |
|  |  |  | 0.7 nM | IC50 [9]: 0.672 nM | B13 |
|  |  |  | 1 nM |  | B14 |
|  |  |  |  | IC50 [9]: 1.3 nM; hAng1/hAng2 IC50 ratio [8]: > 7730 | B15 |
|  |  |  | 0.6 nM |  | B16 |
|  |  |  | 10.7 nM |  | B17 |
|  |  | 0.04 nM |  | IC50 [2]: 0.07 nM | B18 |
|  |  | 0.08 nM |  | IC50 [9]: 0.077 nM; hAng1/hAng2 IC50 ratio [8]: > 130000; hAng1/hAng2 ratio [8]: > 130000 | B19 |
|  |  | 0.1 nM |  |  | B20 |
| 52% |  |  |  | % inh [6]: 4% | B21 |
|  |  |  |  | IC50 [9]: 0.05 nM; hAng1/hAng2 IC50 ratio [8]: > 201000 | B22 |
| 90% | 87% |  |  | % inh [6]: 9% | B23 |
| 78% | 94% |  |  | % inh [6]: 6%; % inh [4]: 10% | B24 |
| 55% | 112% | 4 nM |  | % inh [4]: 17% | B25 |
| 60% | 112% |  |  | % inh [6]: 63% | B26 |
|  |  | 6.2 nM |  | IC50 [2]: 3.4 nM; IC50 [9]: 6.6 nM | B27 |
